Here are results for five sequences from the supplement of paper PMC5998384.

The subject of series [1] is HeLa Kyoto. The series can be described thus: solubility in G1/S (NP-40 vs SDS abundance) (log2 ratio); higher = more soluble. The note with it: cell cycle stage: G1/S.
Series [2] has as its system HeLa Kyoto. The series can be described thus: melting temperature (median over replicates), in situ; higher = more thermally stable.
Series [3] has as its system HeLa Kyoto. The series can be described thus: solubility change mitosis vs G1/S (difference of NP-40 vs SDS log2 ratios) (log2 ratio difference); higher = more soluble in mitosis.
The test system of series [4] is HeLa Kyoto. The series can be described thus: thermal stability score vs G1/S (z-score of summed log2 fold changes over temperatures); higher = more thermally stable than in G1/S.
Setting [5] is: cell cycle stage: early G1 (4.5 h after nocodazole release).
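Wherever melting temperature (median over replicates), in situ is given: HeLa Kyoto cells synchronized by double thymidine or nocodazole block, proteins quantified by TMT10plex mass spectrometry, three independent biological replicates.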
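Wherever solubility change mitosis vs G1/S (difference of NP-40 vs SDS log2 ratios) is given: synchronized HeLa Kyoto cells (double thymidine block for G1/S, nocodazole release for mitosis), protein amounts in NP-40 versus SDS lysates quantified by mass spectrometry, three biological replicates.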
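Wherever solubility in G1/S (NP-40 vs SDS abundance) is given: HeLa Kyoto cells arrested at G1/S by double thymidine block, proteins quantified by TMT10plex mass spectrometry in mild NP-40 versus SDS extracts, three biological replicates.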
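Wherever thermal stability score vs G1/S (z-score of summed log2 fold changes over temperatures) is given: synchronized HeLa Kyoto cells, proteins quantified by TMT10plex mass spectrometry, three biological replicates, mitosis taken 0.5 h after nocodazole release, G1/S directly after double thymidine block.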

For the sequence “MRVAALISGGKDSCYNMMQCIAAGHQIVALANLRPAENQVGSDELDSYMYQTVGHHAIDLYAEAMALPLYRRTIRGRSLDTRQVYTKCEGDEVEDLYELLKLVKEKEEVEGISVGAILSDYQRIRVENVCKRLNLQPLAYLWQRNQEDLLREMISSNIQAMIIKVAALGLDPDKHLGKTLDQMEPYLIELSKKYGVHVCGEGGEYETFTLDCPLFKKKIIVDSSEVVIHSADAFAPVAYLRFLELHLEDKVSSVPDNYRTSNYIYNF [DPH6]”, in series [1], the “solubility in G1/S (log2)” value was found to be 0.152. Also, the values for the melting temperature in series [2] (cell cycle stage: G1/S) and in series [2] (cell cycle stage: mitosis) were 50.2 °C and 50.6 °C, respectively. Also, the “solubility change mitosis (log2)” value in series [3] was -0.0821. Also, the figures for the thermal stability score in series [4] (setting [5]) and in series [4] (cell cycle stage: mitosis) were -0.982 and 0.029, respectively.

“MRVAGAAKLVVAVAVFLLTFYVISQVFEIKMDASLGNLFARSALDTAARSTKPPRYKCGISKACPEKHFAFKMASGAANVVGPKICLEDNVLMSGVKNNVGRGINVALANGKTGEVLDTKYFDMWGGDVAPFIEFLKAIQDGTIVLMGTYDDGATKLNDEARRLIADLGSTSITNLGFRDNWVFCGGKGIKTKSPFEQHIKNNKDTNKYEGWPEVVEMEGCIPQKQD [FAM3C]”: the “solubility in G1/S (log2)” value in series [1] was found to be 0.634. In addition, the values for the melting temperature in series [2] (cell cycle stage: G1/S) and in series [2] (cell cycle stage: mitosis) were 54.2 °C and 53.2 °C, respectively. Moreover, the “solubility change mitosis (log2)” value in series [3] came to 0.0546. The thermal stability score in series [4] (setting [5]) was 0.362; in series [4] (cell cycle stage: mitosis) it was 0.765.

On to “MRVRIGLTLLLCAVLLSLASASSDEEGSQDESLDSKTTLTSDESVKDHTTAGRVVAGQIFLDSEESELESSIQEEEDSLKSQEGESVTEDISFLESPNPENKDYEEPKKVRKPALTAIEGTAHGEPCHFPFLFLDKEYDECTSDGREDGRLWCATTYDYKADEKWGFCETEEEAAKRRQMQEAEMMYQTGMKILNGSNKKSQKREAYRYLQKAASMNHTKALERVSYALLFGDYLPQNIQAAREMFEKLTEEGSPKGQTALGFLYASGLGVNSSQAKALVYYTFGALGGNLIAHMVLGYRYWAGIGVLQSCESALTHYRLVANHVASDISLTGGSVVQRIRLPDEVENPGMNSGMLEEDLIQYYQFLAEKGDVQAQVGLGQLHLHGGRGVEQNHQRAFDYFNLAANAGNSHAMAFLGKMYSEGSDIVPQSNETALHYFKKAADMGNPVGQSGLGMAYLYGRGVQVNYDLALKYFQKAAEQGWVDGQLQLGSMYYNGIGVKRDYKQALKYFNLASQGGHILAFYNLAQMHASGTGVMRSCHTAVELFKNVCERGRWSERLMTAYNSYKDGDYNAAVIQYLLLAEQGYEVAQSNAAFILDQREASIVGENETYPRALLHWNRAASQGYTVARIKLGDYHFYGFGTDVDYETAFIHYRLASEQQHSAQAMFNLGYMHEKGLGIKQDIHLAKRFYDMAAEASPDAQVPVFLALCKLGVVYFLQYIRETNIRDMFTQLDMDQLLGPEWDLYLMTIIALLLGTVIAYRQRQHQDMPAPRPPGPRPAPPQQEGPPEQQPPQ [SEL1L]”, for which the “solubility in G1/S (log2)” value in series [1] worked out at 0.228. Moreover, the results for the melting temperature in series [2] (cell cycle stage: G1/S) and in series [2] (cell cycle stage: mitosis) were 53.9 °C and 52 °C, respectively. Moreover, the “solubility change mitosis (log2)” value in series [3] was -0.0462. The thermal stability score is -0.563 in series [4] (setting [5]) and -0.64 in series [4] (cell cycle stage: mitosis).

As for “MRWGHHLPRASWGSGFRRALQRPDDRIPFLIHWSWPLQGERPFGPPRAFIRHHGSSVDSAPPPGRHGRLFPSASATEAIQRHRRNLAEWFSRLPREERQFGPTFALDTVHVDPVIRESTPDELLRPPAELALEHQPPQAGLPPLALSQLFNPDACGRRVQTVVLYGTVGTGKSTLVRKMVLDWCYGRLPAFELLIPFSCEDLSSLGPAPASLCQLVAQRYTPLKEVLPLMAAAGSHLLFVLHGLEHLNLDFRLAGTGLCSDPEEPQEPAAIIVNLLRKYMLPQASILVTTRPSAIGRIPSKYVGRYGEICGFSDTNLQKLYFQLRLNQPYCGYAVGGSGVSATPAQRDHLVQMLSRNLEGHHQIAAACFLPSYCWLVCATLHFLHAPTPAGQTLTSIYTSFLRLNFSGETLDSTDPSNLSLMAYAARTMGKLAYEGVSSRKTYFSEEDVCGCLEAGIRTEEEFQLLHIFRRDALRFFLAPCVEPGRAGTFVFTVPAMQEYLAALYIVLGLRKTTLQKVGKEVAELVGRVGEDVSLVLGIMAKLLPLRALPLLFNLIKVVPRVFGRMVGKSREAVAQAMVLEMFREEDYYNDDVLDQMGASILGVEGPRRHPDEPPEDEVFELFPMFMGGLLSAHNRAVLAQLGCPIKNLDALENAQAIKKKLGKLGRQVLPPSELLDHLFFHYEFQNQRFSAEVLSSLRQLNLAGVRMTPVKCTVVAAVLGSGRHALDEVNLASCQLDPAGLRTLLPVFLRARKLGLQLNSLGPEACKDLRDLLLHDQCQITTLRLSNNPLTAAGVAVLMEGLAGNTSVTHLSLLHTGLGDEGLELLAAQLDRNRQLQELNVAYNGAGDTAALALARAAREHPSLELLHLYFNELSSEGRQVLRDLGGAAEGGARVVVSLTEGTAVSEYWSVILSEVQRNLNSWDRARVQRHLELLLRDLEDSRGATLNPWRKAQLLRVEGEVRALLEQLGSSGS [NLRX1]”, the “solubility in G1/S (log2)” value in series [1] was -0.273. In addition, the melting temperature in series [2] (cell cycle stage: G1/S) came to 54.3 °C; in series [2] (cell cycle stage: mitosis), 54.7 °C. The “solubility change mitosis (log2)” value in series [3] was 0.0927. The thermal stability score was -0.577 in series [4] (setting [5]) and -2.13 in series [4] (cell cycle stage: mitosis).

Turning to “MRWGLRPRGPGAAALATARSLWGTPRLPCSPGWQGATKRLLVRSVSGASNHQPNSNSGRYRDTVLLPQTSFPMKLLGRQQPDTELEIQQKCGFSELYSWQRERKVKTEFCLHDGPPYANGDPHVGHALNKILKDIANRFHMMNGSKIHFVPGWDCHGLPIEIKVLSELGREAQNLSAMEIRKKARSFAKAAIEKQKSAFIRWGIMADWNNCYYTFDGKYEAKQLRTFYQMYDKGLVYRSYKPVFWSPSSRTALAEAELEYNPEHVSRSIYVKFPLLKPSPKLASLIDGSSPVSILVWTTQPWTIPANEAVCYMPESKYAVVKCSKSGDLYVLAADKVASVASTLETTFETISTLSGVDLENGTCSHPLIPDKASPLLPANHVTMAKGTGLVHTAPAHGMEDYGVASQHNLPMDCLVDEDGVFTDVAGPELQNKAVLEEGTDVVIKMLQTAKNLLKEEKLVHSYPYDWRTKKPVVIRASKQWFINITDIKTAAKELLKKVKFIPGSALNGMVEMMDRRPYWCISRQRVWGVPIPVFHHKTKDEYLINSQTTEHIVKLVEQHGSDIWWTLPPEQLLPKEVLSEVGGPDALEYVPGQDILDIWFDSGTSWSYVLPGPDQRADLYLEGKDQLGGWFQSSLLTSVAARKRAPYKTVIVHGFTLGEKGEKMSKSLGNVIHPDVVVNGGQDQSKEPPYGADVLRWWVADSNVFTEVAIGPSVLNAARDDISKLRNTLRFLLGNVADFNPETDSIPVNDMYVIDQYMLHLLQDLANKITELYKQYDFGKVVRLLRTFYTRELSNFYFSIIKDRLYCEKENDPKRRSCQTALVEILDVIVRSFAPILPHLAEEVFQHIPYIKEPKSVFRTGWISTSSIWKKPGLEEAVESACAMRDSFLGSIPGKNAAEYKVITVIEPGLLFEIIEMLQSEETSSTSQLNELMMASESTLLAQEPREMTADVIELKGKFLINLEGGDIREESSYKVIVMPTTKEKCPRCWKYTAESSDTLCPRCAEVVSGK [IARS2]”, the “solubility in G1/S (log2)” value in series [1] was -0.0329. Moreover, the melting temperature in series [2] (cell cycle stage: G1/S) and in series [2] (cell cycle stage: mitosis) was 54.9 °C throughout. Further, the “solubility change mitosis (log2)” value in series [3] was -0.0958. Moreover, the thermal stability score in series [4] (setting [5]) is -0.383; in series [4] (cell cycle stage: mitosis), -1.42.
